Source: US20190161539A1 (published 2019)

B1: humanized 266 antibody (Hu266) (antibody, human IgG1, kappa, V domains shown)
VH: EVQLVESGGGLVQPGGSLRLSCAASGFTFSRYSMSWVRQAPGKGLELVAQINSVGNSTYYPDTVKGRFTISRDNAKNTLYLQMNSLRAEDTAVYYCASGDYWGQGTLVTVSS
VL: DVVMTQSPLSLPVTLGQPASISCRSSQSLIYSDGNAYLHWFLQKPGQSPRLLIYKVSNRFSGVPDRFSGSGSGTDFTLKISRVEAEDVGVYYCSQSTHVPWTFGQGTKVEIKR
notes: Mature antibody expressed from pVk-Hu266 and pVg1-Hu266 in Sp2/0 cells; also called exemplified anti-Aβ antibody
B2: Exemplified anti-Tau antibody (having both HCs of SEQ ID NO.68 and both LCs of SEQ ID NO.67) (antibody, human IgG4 S228P, kappa, F234A L235A, V domains shown)
VH: EVQLVQSGAEVKKPGESLKISCKGSGYTFSNYWIEWVRQMPGKGLEWMGEILPGSDSIKYEKNFKGQVTISADKSISTAYLQWSSLKASDTAMYYCARRGNYVDDWGQGTLVTVSS
VL: EIVLTQSPGTLSLSPGERATLSCRSSQSLVHSNQNTYLHWYQQKPGQAPRLLIYKVDNRFSGIPDRFSGSGSGTDFTLTISRLEPEDFAVYYCSQSTLVPLTFGGGTKVEIKR
notes: also called Exemplified anti-Tau mAb; exemplified tau monoclonal antibody

Experiments:
[1] = molecular target: T1, β-amyloid peptide (1-42) conjugated to BSA (C-terminal Cys43 coupled to maleimide-activated bovine serum albumin); test: competition ELISA on coated Aβ1-42-BSA against biotinylated Mu266, second set of three experiments
T1 construct: Coated on the ELISA plate; BSA carrier not written as a chain; also called Aβ1-42-BSA conjugate; Aβ1-42-Cys-BSA conjugate
Method: (§1) The Aβ₁₋₄₂-BSA conjugate was prepared by dissolving 7.5 mg of Aβ₁₋₄₂-Cys₄₃ (C-terminal cysteine Aβ₁₋₄₂, AnaSpec) in 500 μL of dimethylsulfoxide, and then immediately adding 1,500 μL of distilled water. Two (2) milligrams of maleimide-activated bovine serum albumin (Pierce) was dissolved in 200 μL of distilled water. The two solutions were combined, thoroughly mixed, and allowed to stand at room temperature for two (2) hours. A gel chromatography column was used to separate unreacted peptide from Aβ₁₋₄₂-Cys-BSA conjugate.
(§2) After washing the wells with phosphate buffered saline (PBS) containing 0.1% Tween 20 (Washing Buffer) using an ELISA plate washer, the wells were blocked by adding 300 μL of SuperBlock reagent (Pierce) per well. After 30 minutes of blocking, the wells were washed Washing Buffer and excess liquid was removed.
(§3) As a background control, 100 μl of ELISA Buffer was added. The ELISA plate was incubated at room temperature for 90 min. After washing the wells with Washing Buffer, 100 μl of 1 μg/ml HRP-conjugated streptavidin (Cat #21124, Pierce) was added to each well. […] Absorbance was read at 415 nm. The absorbances were plotted against the log of the competitor concentration, curves were fit to the data points (using Prism) and the IC50 was determined for each antibody using methods well-known in the art.

Aβ1-42 = test: method only given as 'essentially as described above' (KD=Kd/Ka)
[2] = molecular target: T1, β-amyloid peptide (1-42) conjugated to …; test: competition ELISA on coated Aβ1-42-BSA against biotinylated Mu266, first set of three experiments
Method: as §1, §2, §3

human tau aggregates = molecular target: T2, human tau aggregates (human, UniProt P10636 2-758); test: SPR (BIACORE 2000), antibody captured on protein A, 1:1 fit
T2 construct: also called fibril tau; tau fibril aggregate
T2 sequence (P10636 other isoform, or with tags, fused parts or gaps limits assumed): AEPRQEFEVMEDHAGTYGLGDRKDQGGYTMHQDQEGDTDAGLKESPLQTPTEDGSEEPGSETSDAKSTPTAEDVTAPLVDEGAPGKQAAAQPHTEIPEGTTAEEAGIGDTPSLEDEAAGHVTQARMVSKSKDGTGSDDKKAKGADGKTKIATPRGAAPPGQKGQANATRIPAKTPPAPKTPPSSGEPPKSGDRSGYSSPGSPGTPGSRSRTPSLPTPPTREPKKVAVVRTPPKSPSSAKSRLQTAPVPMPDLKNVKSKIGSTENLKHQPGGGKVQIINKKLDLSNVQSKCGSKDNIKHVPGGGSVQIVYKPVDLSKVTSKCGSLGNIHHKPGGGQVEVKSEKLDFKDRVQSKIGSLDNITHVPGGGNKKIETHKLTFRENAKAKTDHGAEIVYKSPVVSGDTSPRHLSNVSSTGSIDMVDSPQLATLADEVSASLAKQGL
Method: (§4) Except as noted, all reagents and materials are from BIACORE® AB (Upsala, Sweden). A CM5 chip containing immobilized protein A (generated using standard NHS-EDC amine coupling) on all four flow cells (FC) is used to employ a capture methodology. Antibody samples are prepared at 0.5 μg/mL by dilution into running buffer. Monomeric tau and fibril tau are prepared to concentrations of 2000, 1000, 500, 250, 125, 62.5, 31.25, 15.63, 7.82, 3.91, 1.95, and 0 (blank) nM by dilution into running buffer. Each analysis cycle consists of: (1) capturing antibody samples on separate flow cells (FC2, FC3, and FC4); (2) injection of 250 μL (300 sec) of either monomeric tau or tau fibril aggregate over respective FC at a rate of 50 μL/min; (3) return to buffer flow for 20 mins. to monitor dissociation phase; (4) regeneration of chip surfaces with 25 μL (30 sec) injection of glycine, pH1.5; (5) equilibration of chip surfaces with a 50 μL (60 sec) injection of HBS-EP+.
Data of binding to tau aggregate is processed using standard double-referencing and fit to a 1:1 binding model using Biacore 2000 Evaluation software, version 4.1, to determine the association rate (kₒₙ, M⁻¹s⁻¹ units), dissociation rate (koff, s⁻¹ units), and Rₘₐₓ (RU units). The equilibrium dissociation constant (KD) was calculated from the relationship KD=koff/kₒₙ, and is in molar units. […] Therefore, KD for binding to monomeric tau is obtained by using a steady state binding fit model from plotting the concentration of antigen versus the response unit.

[3] = molecular target: T3, human monomeric (native or non-aggregate) tau (human, UniProt P10636 2-758); test: SPR (BIACORE 2000), antibody captured on protein A, steady state fit
T3 construct: also called Monomeric Tau; monomeric tau
T3 sequence (P10636 other isoform, or with tags, fused parts or gaps limits assumed): as above
Method: as §4
Data of binding to tau aggregate is processed using standard double-referencing and fit to a 1:1 binding model using Biacore 2000 Evaluation software, version 4.1, to determine the association rate (kₒₙ, M⁻¹s⁻¹ units), dissociation rate (koff, s⁻¹ units), and Rₘₐₓ (RU units). The equilibrium dissociation constant (KD) was calculated from the relationship KD=koff/kₒₙ, and is in molar units. […]

[4] = molecular target: T4, aggregate tau fibrils purified from AD brain homogenates (human, UniProt P10636-8 2-441, limits assumed); test: ELISA on coated tau fibrils purified from AD brain
T4 construct: Brain-derived aggregates; also called Purified AD Tau Fibrils; purified tau fibrils
T4 sequence (P10636 other isoform, or with tags, fused parts or gaps limits assumed): as above

Row | Binder | IC50 [1] [µg/mL] | Kd (Aβ1-42) [pM] | IC50 [2] [µg/mL] | Kd (human tau aggregates) [nM] | koff (human tau aggregates) [s⁻¹] | kon (human tau aggregates) [M⁻¹ s⁻¹] | Kd [3] [nM] | EC50 [4] [pM]
1 | B1 | 4 | 4 | 7.5 | – | – | – | – | –
2 | B2 | – | – | – | < 0.22 | < 1e-05 | 45900 | 235 | 6.8
